Experimental data published in patent US20230220057A1 (STAIDSON BEIJING BIOPHARMACEUTICALS, published 2023).
Substitutions are numbered along the chain they refer to.

T1: BDNF (UniProt P23560 129-247)
T1 construct: also called brain-derived neurotrophic factor
T1 sequence (looked up): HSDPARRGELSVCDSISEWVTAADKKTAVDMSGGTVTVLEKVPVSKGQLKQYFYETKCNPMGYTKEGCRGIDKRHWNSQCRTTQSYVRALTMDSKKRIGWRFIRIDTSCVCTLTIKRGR

T2: NT3 (UniProt P20783 139-257)
T2 construct: also called neurotrophin-3
T2 sequence (looked up): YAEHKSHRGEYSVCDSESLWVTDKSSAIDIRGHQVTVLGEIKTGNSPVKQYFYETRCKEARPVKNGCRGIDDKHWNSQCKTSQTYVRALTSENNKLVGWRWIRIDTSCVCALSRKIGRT

T3: NT4 (UniProt P34130 81-210)
T3 construct: also called neurotrophin-4
T3 sequence (looked up): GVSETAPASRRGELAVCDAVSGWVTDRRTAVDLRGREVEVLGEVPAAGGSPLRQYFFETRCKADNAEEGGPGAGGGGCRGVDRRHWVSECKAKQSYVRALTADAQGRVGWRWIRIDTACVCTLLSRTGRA

B1: Ab6 (antibody, human IgG1, V domains shown)
VH: EVQLVQSGAEVKKPGATVKISCKVSGYTFITYWISWVQQAPGKGLEWMGAIDPSDSDARYSPSFQGRVTITADTSTDTAYMELSSLRSEDTAVYYCAKSDPGYSGYSLLYGFDSWGQGTLVTVSS
VL: DVVMTQSPLSLPVTLGQPASISCRSSQSLVQRNGNTYLSWFQQRPGQPPRLLIYQVSNRYSGVPDRFSGSGSGTDFTLKISRVEAEDVGVYYCGQGAHLPLTFGQGTKVEIK
B2: Ab36 (antibody, human IgG1, V domains shown)
VH: B1 VH with T74K
VL: B1 VL
B3: Ab44 (antibody, human IgG1, V domains shown)
VH: EVQLVQSGAEVKKPGESLKISCKGSGYSFITYWISWVRQMPGKGLEWMGAIDPSDSDARYSPSFQGQVTISADKSISTAYLQWSSLKASDTAMYYCAKSDPGYSGYSLLYGFDSWGQGTLVTVSS
VL: B1 VL with F41Y, P48S
B4: Ab54 (antibody, human IgG1, V domains shown)
VH: B3 VH with G24I
VL: B1 VL with F41Y, P48S
B5: Ab16 (antibody, human IgG1, V domains shown)
VH: B1 VH with T28S
VL: B1 VL
B6: Ab37 (antibody, human IgG1, V domains shown)
VH: B1 VH with T74K
VL: B1 VL with V2I, P48S
B7: Ab10 (antibody, human IgG1, V domains shown)
VH: B1 VH
VL: B1 VL with V2I
B8: Ab55 (antibody, human IgG1, V domains shown)
VH: B3 VH with G24I
VL: B1 VL with F41Y
B9: Ab49 (antibody, human IgG1, V domains shown)
VH: B3 VH
VL: B1 VL with V2I, F41Y
B10: Ab45 (antibody, human IgG1, V domains shown)
VH: B3 VH
VL: B1 VL with F41Y
B11: Ab46 (antibody, human IgG1, V domains shown)
VH: B3 VH
VL: B1 VL
B12: Ab48 (antibody, human IgG1, V domains shown)
VH: B3 VH
VL: B1 VL with V2I, F41Y, P48S
B13: Ab57 (antibody, human IgG1, V domains shown)
VH: B3 VH with G24I
VL: B1 VL with V2I, P48S
B14: Ab60 (antibody, human IgG1, V domains shown)
VH: B3 VH with G24I
VL: B1 VL with V2I
B15: Ab59 (antibody, human IgG1, V domains shown)
VH: B3 VH with G24I
VL: B1 VL with V2I, F41Y
B16: Ab42 (antibody, human IgG1, V domains shown)
VH: B3 VH
VL: B1 VL with V2I, S7T, L11S, F41Y, S72A
B17: Ab47 (antibody, human IgG1, V domains shown)
VH: B3 VH
VL: B1 VL with V2I, P48S
B18: Ab52 (antibody, human IgG1, V domains shown)
VH: B3 VH with G24I
VL: B1 VL with V2I, S7T, L11S, F41Y, S72A
B19: Ab56 (antibody, human IgG1, V domains shown)
VH: B3 VH with G24I
VL: B1 VL
B20: Ab58 (antibody, human IgG1, V domains shown)
VH: B3 VH with G24I
VL: B1 VL with V2I, F41Y, P48S

What follows are binders tested against T1, BDNF (assay: ELISA).

B1: no binding (tested: 100 µg/mL).
B2: no binding (tested: 100 µg/mL).
B3: no binding (tested: 100 µg/mL).
B4: no binding (tested: 100 µg/mL).

Each binder was assayed against T2, NT3 (assay: ELISA).

B1: no binding (tested: 100 µg/mL).
B2: no binding (tested: 100 µg/mL).
B3: no binding (tested: 100 µg/mL).
B4: no binding (tested: 100 µg/mL).

What follows are binders tested against T3, NT4 (assay: ELISA).

B1: no binding (tested: 100 µg/mL).
B2: no binding (tested: 100 µg/mL).
B3: no binding (tested: 100 µg/mL).
B4: no binding (tested: 100 µg/mL).

What follows are binders tested against human NGF (R&D system) (human, UniProt P01138 122-241) (assay: cell-based or functional assay).
human NGF (R&D system), sequence (P01138 122-241 limits assumed): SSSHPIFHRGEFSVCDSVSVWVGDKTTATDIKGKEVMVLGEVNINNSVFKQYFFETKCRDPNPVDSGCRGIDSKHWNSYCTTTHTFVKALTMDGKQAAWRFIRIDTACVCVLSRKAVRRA

First: B1
Second: B5
The “TF1 Cell Proliferation Inhibition Assay IC50” value of the first is 1.8-fold lower: 0.17 nM for the first, 0.3 nM for the second.

B2 and B6 are within 1.5-fold of each other in “TF1 Cell Proliferation Inhibition Assay IC50” value: 0.234 nM for the first, 0.257 nM for the second.

B7 and B4 are within 1.5-fold of each other in “TF1 Cell Proliferation Inhibition Assay IC50” value: 0.254 nM for the first, 0.183 nM for the second.

With B8 the “TF1 Cell Proliferation Inhibition Assay IC50” value was 0.184 nM.

The binders below were run against recombinantly produced human-NGF (human, UniProt P01138 122-241, limits assumed) (assay: ELISA, human NGF coated, IgG titrated).
Description: NGF binding ELISA assay: In human NGF binding ELISA, Corning 3366 high binding 96 well plates were coated with recombinantly produced human-NGF at 1 μg per ml, 50 μl/well in 1×PBS, and incubated overnight at 4° C. The plates were washed and blocked with 250 μl of 1×PBS/1% BSA at least 30 minutes at room temperature. 50 μl of culture supernatants, after 1:1 diluted by the PBS/BSA diluent, or the purified antibodies diluted serially from a certain concentration with the diluent, were added per well, and incubated at 37° C. for 2 hours. After washing, a secondary antibody, goat anti-human IgG Fc AP (Southern biotech) was applied at a dilution of 1:3000 in PBS/BSA. The plates were incubated for 1 hour at RT and washed. After adding the PNPP substrate, the ODs at 405 nm were read.
NGF binding ELISA assay: NGF binding ELISA assay was performed as described in Example 1.

recombinantly produced human-NGF, sequence (P01138 122-241 limits assumed): as above

B1 and B5 are within 1.5-fold of each other in EC50: 0.021 ng/mL for the first, 0.0173 ng/mL for the second.

B2 and B6 are within 1.5-fold of each other in EC50: 0.0218 ng/mL for the first, 0.0317 ng/mL for the second.

B7 and B3 are within 1.5-fold of each other in EC50: 0.0134 ng/mL for the first, 0.0129 ng/mL for the second.

First: B4
Second: B9
The EC50 of the first is 2.7-fold higher: 0.0257 ng/mL for the first, 0.00957 ng/mL for the second.

B10 and B11 are within 1.5-fold of each other in EC50: 0.0166 ng/mL for the first, 0.0169 ng/mL for the second.

B12 and B8 are within 1.5-fold of each other in EC50: 0.0156 ng/mL for the first, 0.0185 ng/mL for the second.

B13 and B14 are within 1.5-fold of each other in EC50: 0.011 ng/mL for the first, 0.00896 ng/mL for the second.

B15 and B16 are within 1.5-fold of each other in EC50: 0.0122 ng/mL for the first, 0.0132 ng/mL for the second.

First: B17
Second: B18
The EC50 of the first is 2.2-fold lower: 0.00942 ng/mL for the first, 0.0206 ng/mL for the second.

B19 and B20 are within 1.5-fold of each other in EC50: 0.0145 ng/mL for the first, 0.0153 ng/mL for the second.

These binders were tested against T4, human NGF-Fc4 (IgG4-Fc) (human, UniProt P01138 122-241, limits assumed) (assay: competition ELISA: antibody pre-incubated with human NGF-Fc4, binding to coated TrkA-Fc).
T4 construct: not shown: human IgG4 Fc
Description: TrkA inhibition ELISA assay: The TrkA inhibition ELISA assay was designed to identify the anti-NGF antibodies that have the capability of blocking NGF binding to its receptor TrkA. In this assay, human TrkA-Fc (IgG1-Fc, Sinobiological) was coated at 1 μg/ml in the 96-well plates and incubated overnight at 4° C. Antibodies, from cell culture supernatants or after purified, in different dilutions, were pre-incubated with human NGF-Fc4 (IgG4-Fc) at a final concentration of 70 ng/mL for 2 hours in 37° C. A total of 50 μl of the reaction mixtures were then transferred into the TrkA-Fc coated 96-well plates and incubated in room temperature for 2 hours. After washing, a secondary mouse anti-human IgG4-AP (Southern biotech) was added at a dilution of 1:1000 After one hour in room temperature, the plates were washed, and after adding PNPP substrate, ODs at 405 nm were read.
TrkA inhibition ELISA assay: The optimized anti-NGF antibodies Ab4, Ab6, Ab10, Ab16, Ab36, Ab37, Ab44, Ab45, Ab46, Ab47, Ab48, Ab49, Ab52, Ab54, Ab55, Ab56, Ab57, Ab58, Ab59, Ab60, Ab61 and the reference antibody Tanezumab (Pfizer), a humanized antibody from mouse hybridoma were further analyzed for their abilities to block NGF binding to its receptor TrkA. TrkA inhibition assay was performed as described in Example 1.

T4 sequence (P01138 122-241 limits assumed): as above

B1 and B5 are within 1.5-fold of each other in IC50: 76.9 ng/mL for the first, 73.5 ng/mL for the second.

B2 and B6 are within 1.5-fold of each other in IC50: 89.9 ng/mL for the first, 132 ng/mL for the second.

Compared with B7, B3 is 1.6-fold higher in IC50: 80.4 ng/mL for the first, 130 ng/mL for the second.

B4 and B9 are within 1.5-fold of each other in IC50: 70.2 ng/mL for the first, 87.8 ng/mL for the second.

First: B10
Second: B11
The IC50 of the first is 1.7-fold higher: 89.8 ng/mL for the first, 53.3 ng/mL for the second.

B12 and B8 are within 1.5-fold of each other in IC50: 93.5 ng/mL for the first, 75.7 ng/mL for the second.

Going from B13 to B14, the IC50 falls from 73.2 ng/mL to 43.4 ng/mL (1.7-fold).

B15 and B16 are within 1.5-fold of each other in IC50: 74.7 ng/mL for the first, 77.3 ng/mL for the second.

B17 and B18 are within 1.5-fold of each other in IC50: 66.2 ng/mL for the first, 70.2 ng/mL for the second.

B19 and B20 are within 1.5-fold of each other in IC50: 66.5 ng/mL for the first, 80 ng/mL for the second.
